From article PMC9177699, “Dynamic interplay between the periplasmic chaperone SurA and the BAM complex in outer membrane protein folding” (Communications Biology, 2022)

What was measured:
[1] = target: BAM complex (BamABCDE) (E. coli, UniProt P0A940 21-810; P77774 20-392; P0A903 25-344; P0AC02 20-245; P0A937 20-113); assay: MST; 400 nM Alexa Fluor 488-labelled SurA variant, BAM complex titrated 25 µM-1 nM in proteoliposomes of E. coli polar lipid extract, 150 mM NaCl, 20 mM Tris-HCl, pH 8.0, 25 °C; BAM concentration taken as 50 % of the total for fitting; 1:1 quadratic binding model; conditions: both partners purified
[2] = target: T1, β-barrel assembly machinery (BAM) complex, BamABCDE (E. coli, UniProt P0A940 21-810; P77774 20-392; P0A903 25-344; P0AC02 20-245; P0A937 20-113); assay: MST; BAM reconstituted in proteoliposomes of E. coli polar lipid extract titrated (25 µM–1 nM) against 400 nM Alexa Fluor 488-labelled SurA variant; TBS pH 8.0, 25 °C; 1:1 quadratic binding model; conditions: both partners purified
[3] = target: T1, β-barrel assembly machinery (BAM) …; assay: MST; BAM in DDM micelles titrated (1.6 nM–52 μM) against 400 nM Alexa Fluor 488-labelled Cys-SurA variant; 0.02% (v/v) DDM, 150 mM NaCl, 20 mM Tris–HCl, pH 8, 25 °C; 1:1 quadratic binding model; conditions: both partners purified
[4] = target: T1, β-barrel assembly machinery (BAM) …; assay: cell-based or functional assay

B1: Alexa Fluor 488-labelled Cys-SurA-∆P2 (domain or fragment)
chain: GCAPQVVDKVAAVVNNGVVLESDVDGLMQSVKLNAAQARQQLPDDATLRHQIMERLIMDQIILQMGQKMGVKISDEQLDQAIANIAKQNNMTLDQMRSRLAYDGLNYNTYRNQIRKEMIISEVRNNEVRRRITILPQEVESLAQQVGNQNDASTELNLSHILIPLPENPTSDQVNEAESQARAIVDQARNGADFGKLAIAHSADQQALNGGQMGWGRIQELPGIFAQALSTAKKGDIVGPIRSGVGFHILKVNDLRGESKNIDAAQKDRAYRMLMNRKFSEEAASWMQEQRASAYVKILSN
modifications: Alexa Fluor 488 (C5 maleimide) on the added N-terminal cysteine
notes: glycine left after TEV cleavage (ENLYFQG) and the cysteine added immediately following the TEV cleavage site; the order G-C is worked out from the text; gene numbering including the signal peptide; not shown: His6, N-terminal, cleaved
**Q.** B1 was tested. Which Kd [1] did it give?
**A.** 1.2 µM

B2: Alexa Fluor 488-labelled Cys-SurA-core (domain or fragment)
chain: GCAPQVVDKVAAVVNNGVVLESDVDGLMQSVKLNAAQARQQLPDDATLRHQIMERLIMDQIILQMGQKMGVKISDEQLDQAIANIAKQNNMTLDQMRSRLAYDGLNYNTYRNQIRKEMIISEVRNNEVRRRITILPQEVESLAQQVGNQNDASDAAQKDRAYRMLMNRKFSEEAASWMQEQRASAYVKILSN
modifications: Alexa Fluor 488 (C5 maleimide) on the added N-terminal cysteine
notes: as for B1
**Q.** Which Kd [1] does the source give for B2 here?
**A.** 0.7 µM

B3: Alexa Fluor 488-labelled Cys-SurA-WT (natural protein)
chain: GCAPQVVDKVAAVVNNGVVLESDVDGLMQSVKLNAAQARQQLPDDATLRHQIMERLIMDQIILQMGQKMGVKISDEQLDQAIANIAKQNNMTLDQMRSRLAYDGLNYNTYRNQIRKEMIISEVRNNEVRRRITILPQEVESLAQQVGNQNDASTELNLSHILIPLPENPTSDQVNEAESQARAIVDQARNGADFGKLAIAHSADQQALNGGQMGWGRIQELPGIFAQALSTAKKGDIVGPIRSGVGFHILKVNDLRGESKNISVTEVHARHILLKPSPIMTDEQARVKLEQIAADIKSGKTTFAAAAKEFSQDPGSANQGGDLGWATPDIFDPAFRDALTRLNKGQMSAPVHSSFGWHLIELLDTRNVDKTDAAQKDRAYRMLMNRKFSEEAASWMQEQRASAYVKILSN
modifications: Alexa Fluor 488 (C5 maleimide) on the added N-terminal cysteine
notes: as for B1
**Q.** B3 was tested. Which Kd [1] did it give?
**A.** 0.6 µM

B4: Alexa Fluor 488-labelled Cys-SurA-∆P2 (domain or fragment)
chain: CAPQVVDKVAAVVNNGVVLESDVDGLMQSVKLNAAQARQQLPDDATLRHQIMERLIMDQIILQMGQKMGVKISDEQLDQAIANIAKQNNMTLDQMRSRLAYDGLNYNTYRNQIRKEMIISEVRNNEVRRRITILPQEVESLAQQVGNQNDASTELNLSHILIPLPENPTSDQVNEAESQARAIVDQARNGADFGKLAIAHSADQQALNGGQMGWGRIQELPGIFAQALSTAKKGDIVGPIRSGVGFHILKVNDLRGESKNIDAAQKDRAYRMLMNRKFSEEAASWMQEQRASAYVKILSN
modifications: Alexa Fluor 488 on the added N-terminal cysteine (maleimide)
notes: cysteine residue added immediately following the TEV cleavage site; numbers are the gene numbering (including the signal peptide); A G of the TEV site probably precedes the added cysteine after cleavage (surmised); not shown: His6, N-terminal, cleaved
**Q.** Does B4 bind [2]?
**A.** binds

B5: Alexa Fluor 488-labelled Cys-SurA-∆P1 (domain or fragment)
chain: GCAPQVVDKVAAVVNNGVVLESDVDGLMQSVKLNAAQARQQLPDDATLRHQIMERLIMDQIILQMGQKMGVKISDEQLDQAIANIAKQNNMTLDQMRSRLAYDGLNYNTYRNQIRKEMIISEVRNNEVRRRITILPQEVESLAQQVGNQNDASSVTEVHARHILLKPSPIMTDEQARVKLEQIAADIKSGKTTFAAAAKEFSQDPGSANQGGDLGWATPDIFDPAFRDALTRLNKGQMSAPVHSSFGWHLIELLDTRNVDKTDAAQKDRAYRMLMNRKFSEEAASWMQEQRASAYVKILSN
modifications: Alexa Fluor 488 (C5 maleimide) on the added N-terminal cysteine
notes: as for B1
**Q.** Which Kd [1] does the source give for B5 here?
**A.** 0.6 µM

B6: Alexa Fluor 488-labelled Cys-SurA-∆P1 (domain or fragment)
chain: CAPQVVDKVAAVVNNGVVLESDVDGLMQSVKLNAAQARQQLPDDATLRHQIMERLIMDQIILQMGQKMGVKISDEQLDQAIANIAKQNNMTLDQMRSRLAYDGLNYNTYRNQIRKEMIISEVRNNEVRRRITILPQEVESLAQQVGNQNDASSVTEVHARHILLKPSPIMTDEQARVKLEQIAADIKSGKTTFAAAAKEFSQDPGSANQGGDLGWATPDIFDPAFRDALTRLNKGQMSAPVHSSFGWHLIELLDTRNVDKTDAAQKDRAYRMLMNRKFSEEAASWMQEQRASAYVKILSN
modifications: Alexa Fluor 488 on the added N-terminal cysteine (maleimide)
notes: cysteine residue added immediately following the TEV cleavage site; numbers are the gene numbering (including the signal peptide); A G of the TEV site probably precedes the added cysteine after cleavage (surmised); also called SurA-ΔP1; not shown: His6, N-terminal, cleaved
**Q.** Does B6 bind [2]?
**A.** binds

B7: Alexa Fluor 488-labelled Cys-SurA-WT (natural protein)
chain: CAPQVVDKVAAVVNNGVVLESDVDGLMQSVKLNAAQARQQLPDDATLRHQIMERLIMDQIILQMGQKMGVKISDEQLDQAIANIAKQNNMTLDQMRSRLAYDGLNYNTYRNQIRKEMIISEVRNNEVRRRITILPQEVESLAQQVGNQNDASTELNLSHILIPLPENPTSDQVNEAESQARAIVDQARNGADFGKLAIAHSADQQALNGGQMGWGRIQELPGIFAQALSTAKKGDIVGPIRSGVGFHILKVNDLRGESKNISVTEVHARHILLKPSPIMTDEQARVKLEQIAADIKSGKTTFAAAAKEFSQDPGSANQGGDLGWATPDIFDPAFRDALTRLNKGQMSAPVHSSFGWHLIELLDTRNVDKTDAAQKDRAYRMLMNRKFSEEAASWMQEQRASAYVKILSN
modifications: Alexa Fluor 488 on the added N-terminal cysteine (maleimide)
notes: cysteine residue added immediately following the TEV cleavage site; numbers are the gene numbering (including the signal peptide); A G of the TEV site probably precedes the added cysteine after cleavage (surmised); also called Alexa Fluor 488-labelled SurA; not shown: His6, N-terminal, cleaved
**Q.** B7 was tested. Which Kd [3] did it give?
**A.** 2.6 ± 0.2 µM

B8: SurA-∆P2 (SurA 21-428 without residues 281-389, His-tag cleaved) (domain or fragment)
chain: APQVVDKVAAVVNNGVVLESDVDGLMQSVKLNAAQARQQLPDDATLRHQIMERLIMDQIILQMGQKMGVKISDEQLDQAIANIAKQNNMTLDQMRSRLAYDGLNYNTYRNQIRKEMIISEVRNNEVRRRITILPQEVESLAQQVGNQNDASTELNLSHILIPLPENPTSDQVNEAESQARAIVDQARNGADFGKLAIAHSADQQALNGGQMGWGRIQELPGIFAQALSTAKKGDIVGPIRSGVGFHILKVNDLRGESKNIDAAQKDRAYRMLMNRKFSEEAASWMQEQRASAYVKILSN
**Q.** B8 was tested. Which “rate of BAM-catalysed folding of tOmpA into proteoliposomes (cold SDS–PAGE), with SurA-∆P2 against SurA-WT” value [4] did it give?
**A.** ~3 fold

B9: Alexa Fluor 488-labelled Cys-SurA-core (domain or fragment)
chain: CAPQVVDKVAAVVNNGVVLESDVDGLMQSVKLNAAQARQQLPDDATLRHQIMERLIMDQIILQMGQKMGVKISDEQLDQAIANIAKQNNMTLDQMRSRLAYDGLNYNTYRNQIRKEMIISEVRNNEVRRRITILPQEVESLAQQVGNQNDASDAAQKDRAYRMLMNRKFSEEAASWMQEQRASAYVKILSN
modifications: Alexa Fluor 488 on the added N-terminal cysteine (maleimide)
notes: as for B4
**Q.** With B9 as the binder, how does the Kd [3] read?
**A.** 1.3 ± 0.3 µM

B10: SurA-WT (wild-type SurA, residues 21-428, His-tag cleaved) (natural protein)
chain: APQVVDKVAAVVNNGVVLESDVDGLMQSVKLNAAQARQQLPDDATLRHQIMERLIMDQIILQMGQKMGVKISDEQLDQAIANIAKQNNMTLDQMRSRLAYDGLNYNTYRNQIRKEMIISEVRNNEVRRRITILPQEVESLAQQVGNQNDASTELNLSHILIPLPENPTSDQVNEAESQARAIVDQARNGADFGKLAIAHSADQQALNGGQMGWGRIQELPGIFAQALSTAKKGDIVGPIRSGVGFHILKVNDLRGESKNISVTEVHARHILLKPSPIMTDEQARVKLEQIAADIKSGKTTFAAAAKEFSQDPGSANQGGDLGWATPDIFDPAFRDALTRLNKGQMSAPVHSSFGWHLIELLDTRNVDKTDAAQKDRAYRMLMNRKFSEEAASWMQEQRASAYVKILSN
**Q.** How did the “rate of BAM-mediated folding of tOmpA into proteoliposomes (cold SDS–PAGE), without SurA-WT against with 10 μM SurA-WT” value [4] turn out when B10 was run?
**A.** ~6 fold
